Data reported in patent US20110091971A1, “Differentiation of Pluripotent Stem Cells” (priority 2008, published 2011).
Substitutions are numbered along the chain they refer to. Where “and” joins values, the source holds several entries; their conditions need not be identical. Equal entries are not always repeated.

B1: ACTN52: activin A variant peptide, SEQ ID 53 (protein)
chain: GLECDGKVNICCKKQLFGKTKDIGWNDWIIAPSGYHGGSCTGECPSHIAGTSGSSLSFHSTVINHYRMRGHSPNANLKSCCSPTKLRPMSMLYYDDGQNIIKKDIQGMKVEECGCT
B2: ACTN53: activin A variant peptide, SEQ ID 54 (protein)
chain: B1 chain with L16E, K19Q, T20A, S39G, T41S, N74W
B3: ACTN55: activin A variant peptide, SEQ ID 56 (protein)
chain: B1 chain with L16S, K19Q, S39G, N74W, K109V
B4: ACTN62: activin A variant peptide, SEQ ID 63 (protein)
chain: B1 chain with L16S, K19Q, T20A, S39G, N74W, G107N, K109V
B5: ACTN63: activin A variant peptide, SEQ ID 64 (protein)
chain: B1 chain with L16S, G18S, K19Q, T20A, S39G, N74F, K109V
B6: ACTN57: activin A variant peptide, SEQ ID 58 (protein)
chain: B1 chain with L16S, K19Q, T20A, S39G, T41S, N74W, G107N
B7: ACTN59: activin A variant peptide, SEQ ID 60 (protein)
chain: B1 chain with K19Q, S39G, S82A, T116V
B8: ACTN64: activin A variant peptide, SEQ ID 65 (protein)
chain: B1 chain with L16S, K19Q, S39G, T41S, N74W, K109V
B9: ACTN71: activin A variant peptide, SEQ ID 72 (protein)
chain: B1 chain with L16S, K19Q, T20A, S39G, N74F, G107N
B10: ACTN44: activin A variant peptide, SEQ ID 45 (protein)
chain: GLECDGKVNLCCKKQNFVSFKDIGWNDWIIAPSGYHANECSGKCPSHIAGTSGSSLSFHSTVINHYRMRGHSPFSDMGACCIPTKLRPMSMLYYDDGQNIIKKDIQNMIVEECGCS
B11: ACTN47: activin A variant peptide, SEQ ID 48 (protein)
chain: B10 chain with L10Y, A79S
B12: ACTN45: activin A variant peptide, SEQ ID 46 (protein)
chain: B10 chain with L10T, S75A, D76N

tested on: H1 or H9 human embryonic stem cells; test: Activin A bioassay: differentiation of human embryonic stem cells to definitive endoderm, cell number and SOX17 intensity by high content analysis (96-well, four days); format: cell-based; details: supernatant concentration 1x, assay dilution 1:20;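 on Cell Number average: Raw total cell count per well from high content imaging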;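 on Sox 17 Intensity average: total fluorescence of the cell multiplied by cell area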
Description: Activin A is an important mediator of differentiation in a broad range of cell types. […] A bioassay that measures this differentiation in human embryonic stem cells was adapted in miniaturized format to 96-well plates for screening purposes. Validation was completed using treatment with commercial sources of activin A and Wnt3a recombinant proteins and measuring protein expression of the transcription factor SOX17, which is considered a representative marker of definitive endoderm.
Live Cell Assay: Briefly, clusters of H1 or H9 human embryonic stem cells were grown on growth factor-reduced MATRIGEL™ (Invitrogen; Cat #356231)-coated tissue culture plastic. Cells were passaged using collagenase (Invitrogen; Cat # Cat #17104-019) treatment and gentle scraping, washed to remove residual enzyme, and plated in a ratio of 1:1 (surface area) on growth factor-reduced MATRIGEL™-coated 96-well plates (black, 96-well; Packard ViewPlates; Cat #6005182). Cells were allowed to attach as clusters and then recover log phase growth over a 1 to 3 day period, feeding daily with MEF conditioned medium supplemented with 8 ng/ml bFGF (R&D Systems; Cat #233-FB).
The assay was initiated by washing the wells of each plate twice in PBS and followed by adding an aliquot (100 μl) of test sample in DMEM:F12 basal medium (Invitrogen; Cat #11330-032) to each well. Test conditions were performed in triplicate, feeding […] by aspirating and replacing the medium from each well with test samples over a total four day assay period. On the first and second day of assay, test samples added to the assay wells were diluted in DMEM:F12 with 0.5% FCS (HyClone; Cat #SH30070.03) and 20 ng/ml Wnt3a (R&D Systems; Cat #1324-WN). On the third and fourth day of assay, test samples added to the assay wells were diluted in DMEM:F12 with 2% FCS, without any Wnt3a. Positive control samples consisted of recombinant human activin A (Peprotech; Cat #120-14) added at a concentration of 100 ng/ml throughout assay plus Wnt3a (20 ng/ml) on days 1 and 2. Negative control samples omitted treatment with both activin A and Wnt3a.
High Content Analysis: At the conclusion of four days of culture, assay plates were washed twice with PBS, fixed with 4% paraformaldehyde at room temperature for 20 minutes, then washed three times with PBS and permeabilized with 0.5% Triton X-100 for 20 minutes at room temperature. Cells were washed again three times with PBS and blocked with 4% chicken serum (Invitrogen; Cat #16110082) in PBS for 30 minutes at room temperature. Primary antibody (goat anti-human SOX17; R&D Systems; cat #AF1924) was diluted 1:100 in 4% chicken serum and added to each well for one hour at room temperature. Alexa Fluor 488 conjugated secondary antibody (chicken anti-goat IgG; Molecular Probes; Cat #) was diluted 1:200 in PBS and added to each sample well after washing three times with PBS. To counterstain nuclei, 4 μg/ml Hoechst 33342 (Invitrogen; Cat #H3570) was added for ten minutes at room temperature. Plates were washed once with PBS and left in 100 μl/well PBS for imaging.
Imaging was performed using an IN Cell Analyzer 1000 (GE Healthcare) utilizing the 51008bs dichroic for cells stained with Hoechst 33342 and Alexa Fluor 488. Exposure times were optimized from positive control wells and from untreated negative control wells stained with secondary antibody alone. Images from 15 fields per well were acquired to compensate for any cell loss during the bioassay and subsequent staining procedures. Measurements for total cell number and total SOX17 intensity were obtained from each well using IN Cell Developer Toolbox 1.7 (GE Healthcare) software. Segmentation for the nuclei was determined based on grayscale levels (baseline range 100-300) and nuclear size. Averages and standard deviations were calculated for each replicate data set. […]

Molecule | Cell Number average | Sox 17 Intensity average
B1 | 3092 | 1.17E+05
B2 | 1610 | 1.14E+06
B3 | 2425 | 3.41E+05
B4 | 1661 | 1.05E+06
B5 | 3380 | 1.07E+06
B6 | 4485 | 9.99E+05
B7 | 2613 | 1.09E+06
B8 | 2415 | 1.30E+06
B9 | 1621 | 2.45E+05
B10 | 3657 | 5.01E+04
B11 | 2624 | 7.48E+05
B12 | 4591 | 1.48E+05

same assay, conditions: supernatant concentration 1x, assay dilution 1:20; control = R&D Sys Activin A 100 ng/ml on same plate

Molecule | Sox 17 Intensity % of control [%]
B1 | 1.3
B2 | 3.8
B3 | 1.2
B4 | 3.6
B5 | 3.6
B6 | 3.4
B7 | 3.7
B8 | 4.4
B9 | 0.8
B10 | 0.5
B11 | 8.0
B12 | 1.6

same assay, conditions: supernatant concentration 10x, assay dilution 1:20

Molecule | Cell Number average | Sox 17 Intensity average
B1 | 4869 | 2.64E+04
B2 | 3229 | 1.51E+06
B3 | 3611 | 2.67E+05
B4 | 5728 | 2.45E+05
B5 | 1935 | 2.28E+06
B6 | 6471 | 1.74E+06
B7 | 3304 | 2.11E+06
B8 | 2215 | 1.55E+06
B9 | 3909 | 3.61E+05
B10 | 1508 | 3.24E+05
B11 | 1399 | 4.27E+06
B12 | 2058 | 1.13E+05

same assay, conditions: supernatant concentration 10x, assay dilution 1:20; assay plates #007, #009, #010

Molecule | Cell Number average | Sox 17 Intensity average
B6 | 9442 | 1.70E+06

same assay, conditions: supernatant concentration 10x, assay dilution 1:20; control = R&D Sys Activin A 100 ng/ml on same plate

Molecule | Sox 17 Intensity % of control
B1 | 0.3%
B2 | 5.1%
B3 | 0.9%
B4 | 0.8%
B5 | 7.7%
B6 | 5.9% and 6.8%
B7 | 7.1%
B8 | 5.2%
B9 | 1.2%
B10 | 3.5%
B11 | 45.7%
B12 | 1.2%

same assay, conditions: supernatant concentration 10x, assay dilution 1:40

Molecule | Cell Number average | Sox 17 Intensity average
B1 | 3900 | 9.50E+04
B2 | 3476 | 9.41E+05
B3 | 2761 | 5.44E+05
B4 | 3782 | 1.33E+06
B5 | 2718 | 2.01E+06
B6 | 4594 | 1.30E+06
B7 | 1776 | 1.81E+06
B8 | 2688 | 1.12E+06
B9 | 1970 | 1.01E+06
B10 | 2272 | 1.58E+05
B11 | 1610 | 1.09E+06
B12 | 4482 | 2.30E+04

same assay, conditions: supernatant concentration 10x, assay dilution 1:40; control = R&D Sys Activin A 100 ng/ml on same plate

Molecule | Sox 17 Intensity % of control [%]
B1 | 1.0
B2 | 3.2
B3 | 1.8
B4 | 4.5
B5 | 6.8
B6 | 4.4
B7 | 6.1
B8 | 3.8
B9 | 3.4
B10 | 1.7
B11 | 11.7
B12 | 0.2

same assay, conditions: supernatant concentration 50x, assay dilution 1:20; assay plates #008, #009

Molecule | Cell Number average | Sox 17 Intensity average
B6 | 12697 | 7.82E+06

same assay, conditions: supernatant concentration 50x, assay dilution 1:20; control = R&D Sys Activin A 100 ng/ml on same plate

Molecule | Sox 17 Intensity % of control [%]
B6 | 31.4
